What was measured:
purified protein [1] = substrate: NC(=O)c1ccc[n+]([C@@H]2O[C@H](COP(=O)(O)OP(=O)(O)OC[C@H]3O[C@@H](n4cnc5c(N)ncnc54)[C@H](O)[C@@H]3O)[C@@H](O)[C@H]2O)c1; assay: purified protein; format: biochemical, Umboniibacter marinipuniceus; conditions: 1 mM DL-isocitrate, 50 mM Tris-HCl pH 8.5, 25 °C, apparent constant, varied: cofactor
purified protein [2] = substrate: NC(=O)c1ccc[n+]([C@@H]2O[C@H](COP(=O)(O)OP(=O)(O)OC[C@H]3O[C@@H](n4cnc5c(N)ncnc54)[C@H](OP(=O)(O)O)[C@@H]3O)[C@@H](O)[C@H]2O)c1; assay: purified protein; format: biochemical, Umboniibacter marinipuniceus; conditions: 1 mM DL-isocitrate, 50 mM Tris-HCl pH 8.5, 25 °C, apparent constant, varied: cofactor

B1: UmIDH (Umboniibacter marinipuniceus) (protein)
chain: MTFQYILPPKSGEPIQHTQDNQIIVPDRPIIPYIEGDGIGIDITPVMLEVVDAAVAQAYKGKKSIAWMEVFCGEKAADIYEGDWFPPETLAALQKYSVAIKGPLTTPIGGGFRSLNVALRQELDLYVCQRPIQWFKGVPSVVRKPNAVKMVIFRENSEDIYAGIEWRAGSEEAIKVTRFLQEEMGVTSLRFTENCGLGVKPISEQGSKRLVRKAIEYAIAHDKPSVTMVHKGNIMKYTEGAFCEWGYEVACEEFGATHEADSPWLTIINPNTAAKIVIKDVIADAMMQEILMYPQDHSVIATMNLNGDYLSDALAAQVGGIGIAPGANIGDRIALFEPTHGTAPRLAGMDRVNPCSLILSAEMMLRHLGWTKAADLMVKGVKYTISDRTVTHDFHSMMEHAELLSTSEFGAAVIKNMRRR
notes: full-length, codon-optimised synthetic gene in pET28b (NdeI/XhoI), 6xHis tag, E. coli Rosetta (DE3); Type I IDH; putative coenzyme residues R345, L346, V352
Km (purified protein [1]; Mn2+ (2 mM)): 1800.0 ± 64.4 µM
kcat (purified protein [1]; Mn2+ (2 mM)): 7.5 ± 0.3 s⁻¹
kcat/Km (purified protein [1]; Mn2+ (2 mM)): 4200 M⁻¹ s⁻¹
Km (purified protein [2]; Mn2+ (2 mM)): 1167.7 ± 113.0 µM
kcat (purified protein [2]; Mn2+ (2 mM)): 11.1 ± 0.4 s⁻¹
kcat/Km (purified protein [2]; Mn2+ (2 mM)): 9500 M⁻¹ s⁻¹

B2: UmIDH (Umboniibacter marinipuniceus; L346I/R345D/V352A) (protein)
chain: MTFQYILPPKSGEPIQHTQDNQIIVPDRPIIPYIEGDGIGIDITPVMLEVVDAAVAQAYKGKKSIAWMEVFCGEKAADIYEGDWFPPETLAALQKYSVAIKGPLTTPIGGGFRSLNVALRQELDLYVCQRPIQWFKGVPSVVRKPNAVKMVIFRENSEDIYAGIEWRAGSEEAIKVTRFLQEEMGVTSLRFTENCGLGVKPISEQGSKRLVRKAIEYAIAHDKPSVTMVHKGNIMKYTEGAFCEWGYEVACEEFGATHEADSPWLTIINPNTAAKIVIKDVIADAMMQEILMYPQDHSVIATMNLNGDYLSDALAAQVGGIGIAPGANIGDRIALFEPTHGTAPDIAGMDRANPCSLILSAEMMLRHLGWTKAADLMVKGVKYTISDRTVTHDFHSMMEHAELLSTSEFGAAVIKNMRRR
notes: as for B1
Km (purified protein [1]; metal not stated for mutants): 369.7 ± 11.84 µM
kcat (purified protein [1]; metal not stated for mutants): 17.7 ± 0.9 s⁻¹
kcat/Km (purified protein [1]; metal not stated for mutants): 48000 M⁻¹ s⁻¹

B3: UmIDH (Umboniibacter marinipuniceus; L346Y/R345K) (protein)
chain: MTFQYILPPKSGEPIQHTQDNQIIVPDRPIIPYIEGDGIGIDITPVMLEVVDAAVAQAYKGKKSIAWMEVFCGEKAADIYEGDWFPPETLAALQKYSVAIKGPLTTPIGGGFRSLNVALRQELDLYVCQRPIQWFKGVPSVVRKPNAVKMVIFRENSEDIYAGIEWRAGSEEAIKVTRFLQEEMGVTSLRFTENCGLGVKPISEQGSKRLVRKAIEYAIAHDKPSVTMVHKGNIMKYTEGAFCEWGYEVACEEFGATHEADSPWLTIINPNTAAKIVIKDVIADAMMQEILMYPQDHSVIATMNLNGDYLSDALAAQVGGIGIAPGANIGDRIALFEPTHGTAPKYAGMDRVNPCSLILSAEMMLRHLGWTKAADLMVKGVKYTISDRTVTHDFHSMMEHAELLSTSEFGAAVIKNMRRR
notes: as for B1
Km (purified protein [2]; metal not stated for mutants): 605.9 ± 38.2 µM
kcat (purified protein [2]; metal not stated for mutants): 15.3 ± 0.2 s⁻¹
kcat/Km (purified protein [2]; metal not stated for mutants): 25000 M⁻¹ s⁻¹
